This is an account of results in US20240402174A1 (Takeda / Millennium, published 2024).

In one test the target is T1, GII.17/1978 VLP (norovirus Hu/GII.17/C142/GF/1978).
T1 construct: also called Hu/GII.17/C142/GF/1978
T1 chain: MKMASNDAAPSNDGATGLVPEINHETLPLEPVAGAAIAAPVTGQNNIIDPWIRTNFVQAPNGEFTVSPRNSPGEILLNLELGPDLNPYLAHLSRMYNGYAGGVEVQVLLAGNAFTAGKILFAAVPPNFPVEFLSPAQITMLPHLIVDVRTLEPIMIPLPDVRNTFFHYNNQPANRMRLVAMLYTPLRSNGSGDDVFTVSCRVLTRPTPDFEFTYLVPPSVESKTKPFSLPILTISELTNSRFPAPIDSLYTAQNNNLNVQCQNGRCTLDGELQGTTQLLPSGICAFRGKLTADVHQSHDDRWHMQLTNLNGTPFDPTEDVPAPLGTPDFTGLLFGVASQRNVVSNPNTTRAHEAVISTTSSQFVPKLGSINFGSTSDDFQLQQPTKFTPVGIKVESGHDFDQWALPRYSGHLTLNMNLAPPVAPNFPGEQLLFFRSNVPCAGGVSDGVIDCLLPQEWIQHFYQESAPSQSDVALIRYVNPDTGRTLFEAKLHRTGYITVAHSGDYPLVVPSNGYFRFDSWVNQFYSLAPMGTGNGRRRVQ
Nature of the test: multiplex microsphere immunoassay.

A further test deals with T2, GII.1 VLP (norovirus Hu/GII.1/Ascension208/2010/USA).
T2 chain: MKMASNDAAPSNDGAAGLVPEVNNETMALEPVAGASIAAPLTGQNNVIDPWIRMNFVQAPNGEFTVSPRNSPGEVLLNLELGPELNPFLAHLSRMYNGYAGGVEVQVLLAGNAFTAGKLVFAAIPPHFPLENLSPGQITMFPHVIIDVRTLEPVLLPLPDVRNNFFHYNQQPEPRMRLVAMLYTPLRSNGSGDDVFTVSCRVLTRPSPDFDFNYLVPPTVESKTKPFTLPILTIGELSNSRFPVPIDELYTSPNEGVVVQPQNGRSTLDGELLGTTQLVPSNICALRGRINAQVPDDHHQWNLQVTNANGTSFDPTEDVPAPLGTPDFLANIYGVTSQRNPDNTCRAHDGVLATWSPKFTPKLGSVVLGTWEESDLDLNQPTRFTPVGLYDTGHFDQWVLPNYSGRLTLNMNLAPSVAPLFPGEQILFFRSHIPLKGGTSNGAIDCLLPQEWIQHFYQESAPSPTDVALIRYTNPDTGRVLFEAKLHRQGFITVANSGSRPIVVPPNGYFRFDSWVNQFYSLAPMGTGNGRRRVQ
Kind of test: multiplex microsphere immunoassay.

Another test deals with T3, GII.4/Sydney VLP (norovirus …, UniProt P54635 1-538).
T3 construct: also called Hu/GII.4/Sydney/NSW0514/2012/AU
T3 chain: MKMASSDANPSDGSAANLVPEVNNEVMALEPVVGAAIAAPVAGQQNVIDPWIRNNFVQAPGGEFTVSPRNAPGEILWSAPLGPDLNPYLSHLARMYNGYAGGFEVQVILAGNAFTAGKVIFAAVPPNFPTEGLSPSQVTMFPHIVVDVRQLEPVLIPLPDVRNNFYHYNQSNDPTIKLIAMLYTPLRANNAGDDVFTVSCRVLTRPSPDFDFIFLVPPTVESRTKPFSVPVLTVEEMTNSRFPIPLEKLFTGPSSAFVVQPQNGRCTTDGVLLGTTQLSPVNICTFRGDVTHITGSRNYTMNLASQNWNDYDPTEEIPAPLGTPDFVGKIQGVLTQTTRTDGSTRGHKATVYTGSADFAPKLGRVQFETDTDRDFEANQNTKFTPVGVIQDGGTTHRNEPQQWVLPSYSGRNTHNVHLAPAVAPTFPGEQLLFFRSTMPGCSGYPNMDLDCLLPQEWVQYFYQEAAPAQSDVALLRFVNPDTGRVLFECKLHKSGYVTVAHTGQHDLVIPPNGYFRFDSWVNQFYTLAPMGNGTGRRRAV
Nature of the test: PGM blockade assay, serially diluted mAb.

The target of a further test is T4, GII.4/Houston VLP (norovirus …, UniProt P54635 1-539).
T4 construct: also called Hu/GII.4/Houston/TCH186/2002/US
T4 chain: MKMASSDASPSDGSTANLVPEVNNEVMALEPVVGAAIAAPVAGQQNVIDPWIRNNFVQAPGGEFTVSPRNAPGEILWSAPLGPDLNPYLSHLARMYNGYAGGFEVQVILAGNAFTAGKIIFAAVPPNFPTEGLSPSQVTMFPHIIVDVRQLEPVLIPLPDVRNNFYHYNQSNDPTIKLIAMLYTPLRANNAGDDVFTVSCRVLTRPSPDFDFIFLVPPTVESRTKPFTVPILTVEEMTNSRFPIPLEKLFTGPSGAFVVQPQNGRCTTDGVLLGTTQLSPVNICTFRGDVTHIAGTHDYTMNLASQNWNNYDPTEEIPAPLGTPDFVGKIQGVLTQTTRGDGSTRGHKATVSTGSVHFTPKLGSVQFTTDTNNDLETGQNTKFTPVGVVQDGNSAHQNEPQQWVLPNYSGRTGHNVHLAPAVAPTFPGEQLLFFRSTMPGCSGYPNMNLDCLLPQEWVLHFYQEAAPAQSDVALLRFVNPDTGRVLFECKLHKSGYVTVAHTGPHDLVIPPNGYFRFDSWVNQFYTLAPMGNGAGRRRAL
Nature of the test: PGM blockade assay, serially diluted mAb.

The next test concerns the target T5, GII.4/Yerseke VLP (norovirus Hu/GII.4/Yerseke38/2006/NL, UniProt P54635 1-539).
T5 construct: also called Hu/GII.4/Yerseke38/2006/NL
T5 chain: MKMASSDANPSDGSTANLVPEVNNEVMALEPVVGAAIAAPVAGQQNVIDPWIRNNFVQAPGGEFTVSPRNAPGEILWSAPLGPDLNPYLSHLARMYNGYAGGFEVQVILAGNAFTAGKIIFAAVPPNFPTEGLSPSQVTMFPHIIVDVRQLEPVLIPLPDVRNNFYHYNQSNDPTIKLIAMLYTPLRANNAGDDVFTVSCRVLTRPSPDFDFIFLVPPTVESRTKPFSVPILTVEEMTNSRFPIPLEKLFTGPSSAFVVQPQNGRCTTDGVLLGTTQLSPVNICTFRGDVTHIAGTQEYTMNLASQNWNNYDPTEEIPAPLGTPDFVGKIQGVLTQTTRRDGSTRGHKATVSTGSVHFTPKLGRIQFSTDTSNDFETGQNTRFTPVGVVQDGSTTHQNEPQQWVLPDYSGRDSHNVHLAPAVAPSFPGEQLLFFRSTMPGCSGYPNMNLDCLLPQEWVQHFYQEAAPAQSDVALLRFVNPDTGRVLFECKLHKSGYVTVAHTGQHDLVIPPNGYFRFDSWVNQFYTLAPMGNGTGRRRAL
Kind of test: PGM blockade assay, serially diluted mAb.

Protocol for GII.4/Houston VLP: (§1) Plates were washed 3 times with PBST before use. […] The mixture was transferred to the PGM-coated plates including VLP-only controls and incubation carried out for 1 h at 22° C. or 37° C. Following 3 washes with PBST, detection antibody specific for the corresponding VLP was added and the plates were incubated at room temperature for 1 h and then washed 3 times with PBST. […] Following 3 washes, enzyme substrate (ABTS, KPL) was added and allowed to react for 12 min at room temperature. ABTS Peroxidase Stop Solution (KPL) was then added and plates were read at a wavelength of 450 nm in a Molecular Devices plate reader using SoftMax Pro Software (Molecular Devices, Downingtown, PA, USA) to obtain the Optical Density (GD) of each well.
(§2) The following, day corresponding dilutions incubated with VLPs were transferred to the PGM-coated plates. The OD data was curve fit and blocking titers were calculated as the supernatant dilution interpolated at 1/2 the maximum OD for the plate. The blocking titers represent the supernatant dilution that produces a 50% reduction in VLP binding to PGM. The maximum OD for the plate was calculated from the VLP only control.
Protocol for GII.4/Sydney VLP: as §1, §2
Protocol for GII.4/Yerseke VLP: as §1, §2

B1: human mAb 1431 (antibody, V domains shown)
VH: QVQLVQSGGGLVQPGGSLRLSCAASGFAFSNHGMHWVRQAPGKGLEWLSYISGSTGAIHYANSVKGRFTISRDNARNSLDLQMNSLGDEDTAVYYCARDGPRPDGTGYAGPSNDYWGQGTLVSVSS
VL: EIVLTQSPASLSLSPGERATLSCKASRSISIYLAWYQQKPGQAPRLLIYDASYRAIGIPARFSGSGSGTDFTLTISNLEPEDFAVYYCQHRSSWPALTFGGGTKVEI
notes: also called A1431
As for B1, the binding result with GII.17/1978 VLP and with GII.1 VLP was “no binding” throughout. Further, the results for the blocking titer with GII.4/Sydney VLP, with GII.4/Houston VLP and with GII.4/Yerseke VLP were 7280, 12100 and 4850, respectively.
